Results published in the supplement of paper PMC10567573.

B1: PTPRD (parent)
chain: ELDELLKEISRKRRSIRYGREVEL

Variants of: B1
Experiment: protein stability index of a GFP-peptide fusion (GPS, HEK-293T) (PSI 1-6); higher = more stable
Settings: c terminus: a fixed tail appended
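Also: lentivirally expressed fusions sorted by FACS into six bins by GFP to DsRed ratio, PSI derived from sequencing read proportions per bin multiplied by bin number.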

Protein stability index of substitutions, site by site:
L24: E 2.77 | T 2.86 | K 2.33 | R 3.13 | D 2.33 | W 2.42 | N 2.97 | Y 2.54 | M 2.73 | F 2.55 | V 2.92 | S 2.69 | Q 2.32
I16: L 2.42 | S 3.4 | G 3.21 | W 1.8 | V 2.35 | C 2.81 | Y 1.75 | T 2.57 | P 2.43 | Q 3.12 | H 2.37 | M 2.54 | N 2.98 | K 1.9 | E 3.62
E4: T 1.88 | M 1.9 | C 1.57 | L 2.19 | F 2.39 | W 2.29 | K 2.59 | P 2.48 | A 3.26 | I 1.73 | S 1.85 | R 2.16 | H 2.6
R20: S 3.33 | M 2.02 | K 2.17 | D 3.33 | T 2.45 | W 1.43 | I 2.11 | N 2.8 | E 2.71 | Y 1.89 | P 2.49 | A 2.85 | L 1.84 | H 2.08 | C 2.01 | F 1.64
I9: P 3.81 | A 3.14 | T 3.97 | Y 2.63 | G 3.57 | K 3.96 | R 3.72 | S 3.62 | L 2.21 | F 2.33 | V 2.61 | E 4.46 | M 2.64 | H 3.09
K7: W 2.19 | S 2.6 | G 2.54 | E 3.1 | P 3.12 | F 2 | H 2.4 | R 2.27 | A 2.83 | V 2.07 | M 2.26 | T 3.09 | I 2.27 | C 2.33 | Q 2.46 | D 3.25
E8: M 2.37 | C 1.83 | N 2.44 | Q 2.81 | V 1.7 | H 1.99 | W 2.64 | R 2.54 | K 3.79 | F 2 | A 1.68 | T 2.79 | S 2.45 | D 2.92 | I 2.83 | L 2.03
R11: N 2.34 | E 3.19 | A 2.01 | C 2.94 | W 2.3 | K 1.84 | M 2.15 | Q 2.55 | V 3.18 | P 3.04 | D 4.06 | L 3.04 | I 2.45 | H 2.45 | F 2.76
D3: R 1.86 | W 1.75 | T 1.8 | L 1.63 | N 3.35 | A 1.76 | P 2.26 | K 2.38 | S 2.57 | F 2.12 | I 3.46 | C 1.73 | Q 2.62
R13: L 1.46 | V 1.55 | N 3 | W 1.72 | T 2.28 | C 1.8 | Q 2.36 | G 2.96 | A 2.38 | E 3.07 | F 2.06 | K 2.54 | S 3.25 | M 2.21 | I 2.23 | P 3.3
S15: A 2.45 | Q 3.4 | L 2.04 | E 2.65 | T 2.99 | P 2.6 | V 2.29 | K 1.88 | M 2.54 | I 2.29 | G 2.44 | R 2.22 | D 1.91
V22: Y 2.27 | P 2.04 | D 2.96 | T 2.52 | Q 2.5 | G 2.64 | K 2.34 | L 2.14 | I 2.17 | W 2.39 | R 2.46 | N 2.35
E1: I 1.77 | L 1.98 | M 2.73 | W 2.69 | R 2.17 | T 3.25 | F 1.83 | C 2.07 | D 2.3 | A 2.54 | H 2.47 | P 3.07 | S 4.1
R17: E 2.64 | M 2.12 | I 2.46 | T 2.15 | P 2.97 | L 2.55 | Q 2.68 | N 2.75 | C 2.34 | K 2.17 | A 2.39 | Y 2.6 | V 2.27
Y18: S 2.91 | C 1.67 | V 1.95 | Q 2.43 | M 2.22 | K 2.46 | F 2.33 | W 1.84 | R 2.33 | N 2.74 | L 2.59 | H 2.33 | I 2.35 | D 2.6 | A 2.13
L2: Y 3.54 | F 2.49 | S 2.99 | V 2.43 | E 4.41 | W 2.99 | K 4.09 | D 4.14 | I 2.6 | A 3.79 | H 4.32
S10: T 2.49 | V 2.48 | N 2.77 | Q 2.2 | F 1.78 | H 2.68 | E 2.84 | D 2.87 | Y 2.06 | L 1.41 | C 3.15 | M 2.24
G19: Q 2.33 | D 2.22 | N 2.47 | P 2.17 | S 2.04 | F 1.71 | Y 2.1 | I 2.05 | C 2.7 | M 2.41 | L 2.13 | T 2.37 | A 2.34 | H 2.41 | W 2.9
E23: C 1.96 | A 2.31 | D 2.12 | R 2.17 | W 2.09 | I 2.38 | V 2.57 | G 2.41 | N 2.54 | Q 2.25 | Y 1.92
L5: Y 3.44 | G 3.96 | T 3.58 | W 2.35 | S 3.6 | H 4.08 | F 2.69 | R 3.18 | A 3.07 | C 3.12 | Q 4.14 | D 3.73 | P 3.82
L6: E 4.28 | R 3.76 | M 2.68 | N 3.81 | V 3.8 | G 4.21 | C 3.29 | Q 3.73 | H 3.19 | I 1.93 | K 3.92 | P 4.08
R14: Y 1.66 | A 2.02 | W 1.73 | G 3.16 | K 2.39 | F 1.96 | T 2.38 | P 2.64 | H 2.92 | E 2.73 | I 1.99 | V 2.42 | N 2.1 | M 2.03 | D 2.65 | Q 2.55 | S 2.9 | L 3.77
E21: P 2.71 | K 2.09 | N 1.93 | Y 2.15 | G 2.22 | M 1.86 | T 3.01 | F 2.22 | R 2.23 | H 2.06 | S 1.86 | I 1.82 | V 1.86 | A 2.16 | Q 2.13 | L 2.12 | C 2.55
K12: G 2.26 | V 2.23 | F 1.29 | A 1.99 | Y 1.55 | C 2.49 | H 2.03 | E 2.32 | S 2.63 | L 1.95 | R 2.49 | M 2.11
